Measurements: patent US20160339053A1

Biological target: recombinant mouse ICAM-1 (mouse) (UniProt P13597)
Assay: cell-based or functional assay

UniProt P13597, sequence (P13597 28-485 limits assumed): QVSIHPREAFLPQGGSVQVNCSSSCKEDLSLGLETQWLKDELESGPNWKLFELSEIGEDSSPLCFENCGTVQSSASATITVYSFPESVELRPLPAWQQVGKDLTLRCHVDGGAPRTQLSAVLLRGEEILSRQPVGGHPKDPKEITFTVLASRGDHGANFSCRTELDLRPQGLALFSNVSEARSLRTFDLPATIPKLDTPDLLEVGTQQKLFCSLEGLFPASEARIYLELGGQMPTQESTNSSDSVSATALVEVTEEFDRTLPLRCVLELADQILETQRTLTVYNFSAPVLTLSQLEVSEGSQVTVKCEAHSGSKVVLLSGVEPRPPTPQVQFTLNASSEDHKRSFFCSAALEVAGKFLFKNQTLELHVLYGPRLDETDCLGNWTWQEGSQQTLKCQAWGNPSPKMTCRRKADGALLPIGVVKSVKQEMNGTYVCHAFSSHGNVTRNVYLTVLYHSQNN

Substance: LFA-1 on mouse preactivated CD4+ T cells (from UniProt P24063 24-1162; P11835 24-771) (receptor)
- adhesion of WT preactivated CD4+ T cells to ICAM-1-coated plates (percent of input cells): 10%
- adhesion of WT preactivated CD4+ T cells to ICAM-1-coated plates, fold over basal after CXCL12, CCL21 or anti-CD3: 2 to 5 fold
